Target: the molecule itself
Experiment: affinity purification with mass spectrometry; anti-apo A-II monoclonal antibody covalently bound on a PS-20 protein chip; plasma diluted 1:2 in TBS pH 7.4 or purified HDL, 2 h at room temperature; washes 4 x TBS, TBS-Tween 0.005 %, 5 mM Hepes; SELDI-TOF MS of captured native HDL

B1: apolipoprotein A-II (natural protein)
chain: not shown
notes: apolipoprotein A-II of human plasma HDL; dimer at about 17.4 kDa (17099, 17221 and 17352 m/z); Three dimer species were seen: the full dimer and dimers lacking one or two terminal (probably C-terminal) glutamine residues; The dimer is probably the disulfide-linked one (my surmise); Present on native HDL particles; also called apo A-II; source: endogenous, human plasma (HDL particles captured …)
- stoichiometry N: 2
